One molecule from PMC2671599, “Intraflagellar Transport (IFT) Protein IFT25 Is a Phosphoprotein Component of IFT Complex B and Physically Interacts with IFT27 in Chlamydomonas” (PLoS ONE, 2009) can be followed below.

Assay [1] concerns the target T1, GST-IFT27 (Chlamydomonas reinhardtii …, UniProt A8HN58).
T1 chain: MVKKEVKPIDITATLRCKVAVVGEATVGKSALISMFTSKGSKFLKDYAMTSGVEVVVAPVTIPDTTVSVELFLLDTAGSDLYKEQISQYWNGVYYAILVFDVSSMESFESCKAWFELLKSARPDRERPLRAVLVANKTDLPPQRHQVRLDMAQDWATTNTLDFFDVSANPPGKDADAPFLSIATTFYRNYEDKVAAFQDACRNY
The assay is described as follows: pull-down (GST and amylose resin).

Assay [2] addresses T2, GST-IFT27 (Chlamydomonas reinhardtii, UniProt A8HN58 1-204).
T2 construct: IFT27, Rab-like small GTPase component of IFT complex B, Chlamydomonas reinhardtii; also called GST-tagged IFT27; source: E. coli BL21 (DE3) pLysE, pGEX-2T-IFT27, purified (Glutathione Sepharose 4B, eluted with reduced glutathione)
T2 sequence (looked up): T1 chain
The experiment in a line: pull-down; GST-IFT27 (~2 ug) on Glutathione Sepharose 4B beads, incubated 1 hour with MBP-IFT25 (~2 ug), MBP-IFT25 plus MBP, or MBP (2 ug); 1xHMDEK, 4 C; supernatant and pellet on SDS-PAGE, Coomassie and immunoblot. The following applies: both partners purified. (A western blot detects proteins with antibodies after separation by electrophoresis.)

B1: MBP-IFT25 (natural protein, Chlamydomonas reinhardtii, UniProt B8LIX8 1-189, looked up)
chain: MKDYAREENGGLVVMASCSDERFPPENMLDGKDNTFWVTTGMFPQEFVLRLESCIRVSKITTLSLNVRKLAVEKCDQDKPDQFEKVFEVELANRGDRLQTEVHQVNIRAKYLKFILLQGHGEFATVNRVSVVGGDDDGGGYDEPGGGYGSMQRQPSMGYGGGGGSAATGFAADPGNAAAGGGGGFEDEF
notes: IFT25 (Flagellar Associated Protein FAP232) of Chlamydomonas reinhardtii; cDNA of 570 nucleotides, predicted about 20 kD; the 3' end of the FAP232 gene model was predicted incorrectly, the corrected cDNA is GenBank EF593953; Details of vector construction are 'available upon request'; also called MBP-tagged IFT25; FAP232; source: E. coli BL21 (DE3) pLysE, pMAL-c2-IFT25, purified (amylose resin, …)
On to B1, for which the binding result with GST-IFT27 [1] and with GST-IFT27 [2] was “binds” in each case.
